From the supplement of paper PMC5998384

Experiments:
HeLa Kyoto [1] = assay: solubility in G1/S (NP-40 vs SDS abundance) (log2 ratio); higher = more soluble; conditions: cell cycle stage: G1/S
HeLa Kyoto [2] = assay: thermal stability score vs G1/S (z-score of summed log2 fold changes over temperatures); higher = more thermally stable than in G1/S
HeLa Kyoto [3] = assay: solubility change mitosis vs G1/S (difference of NP-40 vs SDS log2 ratios) (log2 ratio difference); higher = more soluble in mitosis
[4] = cell cycle stage: early G1 (4.5 h after nocodazole release)
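Wherever solubility change mitosis vs G1/S (difference of NP-40 vs SDS log2 ratios) is given: synchronized HeLa Kyoto cells (double thymidine block for G1/S, nocodazole release for mitosis), protein amounts in NP-40 versus SDS lysates quantified by mass spectrometry, three biological replicates.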
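Wherever solubility in G1/S (NP-40 vs SDS abundance) is given: HeLa Kyoto cells arrested at G1/S by double thymidine block, proteins quantified by TMT10plex mass spectrometry in mild NP-40 versus SDS extracts, three biological replicates.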
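Wherever thermal stability score vs G1/S (z-score of summed log2 fold changes over temperatures) is given: synchronized HeLa Kyoto cells, proteins quantified by TMT10plex mass spectrometry, three biological replicates, mitosis taken 0.5 h after nocodazole release, G1/S directly after double thymidine block.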

Row | Sequence | solubility in G1/S (log2) (HeLa Kyoto [1]) | thermal stability score (HeLa Kyoto [2]; [4]) | thermal stability score (HeLa Kyoto [2]; cell cycle stage: mitosis) | solubility change mitosis (log2) (HeLa Kyoto [3])
1 | MQRRRRPPPPTSRLPEGCGGGGGGSEEVEVQFSAGRWGSAAAVSAAAAAATRSTEEEEERLEREHFWKIINAFRYYGTSMHERVNRTERQFRSLPANQQKLLPQFLLHLDKIRKCIDHNQEILLTIVNDCIHMFENKEYGEDGNGKIMPASTFDMDKLKSTLKQFVRDWSETGKAERDACYQPIIKEILKNFPKERWDPSKVNILVPGAGLGRLAWEIAMLGYACQGNEWSFFMLFSSNFVLNRCSEINKYKLYPWIHQFSNNRRSADQIRPIFFPDVDPHSLPPGSNFSMTAGDFQEIYSECNTWDCIATCFFIDTAHNVIDYIDTIWKILKPGGIWINLGPLLYHFENLANELSIELSYEDIKNVVLQYGFKVEVEKESVLSTYTVNDLSMMKYYYECVLFVVRKPQ [CARNMT1] | -0.164 | 1.2 | 1.42 | -0.117
2 | MQTSEREGSGPELSPSVMPEAPLESPPFPTKSPAFDLFNLVLSYKRLEIYLEPLKDAGDGVRYLLRWQMPLCSLLTCLGLNVLFLTLNEGAWYSVGALMISVPALLGYLQEVCRARLPDSELMRRKYHSVRQEDLQRGRLSRPEAVAEVKSFLIQLEAFLSRLCCTCEAAYRVLHWENPVVSSQFYGALLGTVCMLYLLPLCWVLTLLNSTLFLGNVEFFRVVSEYRASLQQRMNPKQEEHAFESPPPPDVGGKDGLMDSTPALTPTEDLTPGSVEEAEEAEPDEEFKDAIEETHLVVLEDDEGAPCPAEDELALQDNGFLSKNEVLRSKVSRLTERLRKRYPTNNFGNCTGCSATFSVLKKRRSCSNCGNSFCSRCCSFKVPKSSMGATAPEAQRETVFVCASCNQTLSK [ZFYVE27] | -0.196 | 0.202 | -1.24 | -0.198
3 | MRGKTFRFEMQRDLVSFPLSPAVRVKLVSAGFQTAEELLEVKPSELSKEVGISKAEALETLQIIRRECLTNKPRYAGTSESHKKCTALELLEQEHTQGFIITFCSALDDILGGGVPLMKTTEICGAPGVGKTQLCMQLAVDVQIPECFGGVAGEAVFIDTEGSFMVDRVVDLATACIQHLQLIAEKHKGEEHRKALEDFTLDNILSHIYYFRCRDYTELLAQVYLLPDFLSEHSKVRLVIVDGIAFPFRHDLDDLSLRTRLLNGLAQQMISLANNHRLAVILTNQMTTKIDRNQALLVPALGESWGHAATIRLIFHWDRKQRLATLYKSPSQKECTVLFQIKPQGFRDTVVTSACSLQTEGSLSTRKRSRDPEEEL [RAD51C] | 0.00866 | -0.288 | -0.541 | 0.0331
4 | MSENLDKSNVNEAGKSKSNDSEEGLEDAVEGADEALQKAIKSDSSSPQRVQRPHSSPPRFVTVEELLETARGVTNMALAHEIVVNGDFQIKPVELPENSLKKRVKEIVHKAFWDCLSVQLSEDPPAYDHAIKLVGEIKETLLSFLLPGHTRLRNQITEVLDLDLIKQEAENGALDISKLAEFIIGMMGTLCAPARDEEVKKLKDIKEIVPLFREIFSVLDLMKVDMANFAISSIRPHLMQQSVEYERKKFQEILERQPNSLDFVTQWLEEASEDLMTQKYKHALPVGGMAAGSGDMPRLSPVAVQNYAYLKLLKWDHLQRPFPETVLMDQSRFHELQLQLEQLTILGAVLLVTFSMAAPGISSQADFAEKLKMIVKILLTDMHLPSFHLKDVLTTIGEKVCLEVSSCLSLCGSSPFTTDKETVLKGQIQAVASPDDPIRRIMESRILTFLETYLASGHQKPLPTVPGGLSPVQRELEEVAIKFARLVNYNKMVFCPYYDAILSKILVRS [TCP11L1] | 0.346 | 1.37 | 1.4 | 0.1
